# Measurements published in publication PMC11772769, “Selective cargo and membrane recognition by SNX17 regulates its interaction with Retriever” (EMBO Reports, 2024).
# T1: Peptide SNX17_(CT-18), Q15036
# T1 chain: ASDVHGNFAFEGIGDEDL
# B1: MBP-SNX17 (full-length, wild-type), Q15036 N459A; F462A (protein)
# chain: MHFSIPETESRSGDSGGSAYVAYNIHVNGVLHCRVRYSQLLGLHEQLRKEYGANVLPAFPPKKLFSLTPAEVEQRREQLEKYMQAVRQDPLLGSSETFNSFLRRAQQETQQVPTEEVSLEVLLSNGQKVLVNVLTSDQTEDVLEAVAAKLDLPDDLIGYFSLFLVREKEDGAFSFVRKLQEFELPYVSVTSLRSQEYKIVLRKSYWDSAYDDDVMENRVGLNLLYAQTVSDIERGWILVTKEQHRQLKSLQEKVSKKEFLRLAQTLRHYGYLRFDACVADFPEKDCPVVVSAGNSELSLQLRLPGQQLREGSFRVTRMRCWRVTSSVPLPSGSTSSPGRGRGEVRLELAFEYLMSKDRLQWVTITSPQAIMMSICLQSMVDELMVKKSGGSIRKMLRRRVGGTLRRSDSQQAVKSPPLLESPDATRESMVKLSSKLSAVSLRGIGSPSTDASASDVHGAFAAEGIGDEDL
# Target: T1, Peptide SNX17_(CT-18), Q15036
# Assay: fluorescence anisotropy
# Settings: chain shown with the change; 5-FAM-labeled SNX17CT-18 peptide; parent: LB
binder,measurement,value
B1,Kd,86 µM
